We go through 27 molecules from article PMC10786891, “Massively parallel profiling of RNA-targeting CRISPR-Cas13d”.

The labels stand for the following.
B1: target 1 U10G,U19C (mixed)
RNA 1: CACCCGUGCAAAAAUGCAGGGGUCUAAAACUGAGCGGAUAACCUCUCUAUGG
RNA 2: GGGAAUGGAUCCACAUCUACGAAUUCGUACCACAGAGAGGUGAUCCGCUCACCGAGAUCGGAAGAGCACACGU
B2: target 1 MT 5'PFS GUU 3'PFS UCA (mixed)
RNA 1: CACCCGUGCAAAAAUGCAGGGGUCUAAAACUGAGCGGAUAACCUCUCUAUGG
RNA 2: GGGAAUGGAUCCACAUCUACGAAUUCGUUCCAUAGAGAGGUUAUCCGCUCAUCAAGAUCGGAAGAGCACACGU
B3: target 1 MT 5'PFS GUU 3'PFS AAG (mixed)
RNA 1: CACCCGUGCAAAAAUGCAGGGGUCUAAAACUGAGCGGAUAACCUCUCUAUGG
RNA 2: GGGAAUGGAUCCACAUCUACGAAUUCGUUCCAUAGAGAGGUUAUCCGCUCAAAGAGAUCGGAAGAGCACACGU
B4: target 1 MT 5'PFS GAA 3'PFS UAU (mixed)
RNA 1: CACCCGUGCAAAAAUGCAGGGGUCUAAAACUGAGCGGAUAACCUCUCUAUGG
RNA 2: GGGAAUGGAUCCACAUCUACGAAUUCGAACCAUAGAGAGGUUAUCCGCUCAUAUAGAUCGGAAGAGCACACGU
B5: target 1 MT 5'PFS CUG 3'PFS ACU (mixed)
RNA 1: CACCCGUGCAAAAAUGCAGGGGUCUAAAACUGAGCGGAUAACCUCUCUAUGG
RNA 2: GGGAAUGGAUCCACAUCUACGAAUUCCUGCCAUAGAGAGGUUAUCCGCUCAACUAGAUCGGAAGAGCACACGU
B6: target 1 MT 5'PFS UAU 3'PFS UCU (mixed)
RNA 1: CACCCGUGCAAAAAUGCAGGGGUCUAAAACUGAGCGGAUAACCUCUCUAUGG
RNA 2: GGGAAUGGAUCCACAUCUACGAAUUCUAUCCAUAGAGAGGUUAUCCGCUCAUCUAGAUCGGAAGAGCACACGU
B7: target 1 MT 5'PFS CUG 3'PFS UCC (mixed)
RNA 1: CACCCGUGCAAAAAUGCAGGGGUCUAAAACUGAGCGGAUAACCUCUCUAUGG
RNA 2: GGGAAUGGAUCCACAUCUACGAAUUCCUGCCAUAGAGAGGUUAUCCGCUCAUCCAGAUCGGAAGAGCACACGU
B8: target 1 MT 5'PFS GAA 3'PFS UAA (mixed)
RNA 1: CACCCGUGCAAAAAUGCAGGGGUCUAAAACUGAGCGGAUAACCUCUCUAUGG
RNA 2: GGGAAUGGAUCCACAUCUACGAAUUCGAACCAUAGAGAGGUUAUCCGCUCAUAAAGAUCGGAAGAGCACACGU
B9: target 1 MT 5'PFS CUG 3'PFS UCU (mixed)
RNA 1: CACCCGUGCAAAAAUGCAGGGGUCUAAAACUGAGCGGAUAACCUCUCUAUGG
RNA 2: GGGAAUGGAUCCACAUCUACGAAUUCCUGCCAUAGAGAGGUUAUCCGCUCAUCUAGAUCGGAAGAGCACACGU
B10: target 1 MT 5'PFS GUU 3'PFS UCU (mixed)
RNA 1: CACCCGUGCAAAAAUGCAGGGGUCUAAAACUGAGCGGAUAACCUCUCUAUGG
RNA 2: GGGAAUGGAUCCACAUCUACGAAUUCGUUCCAUAGAGAGGUUAUCCGCUCAUCUAGAUCGGAAGAGCACACGU
B11: target 1 MT 5'PFS CCU 3'PFS ACU (mixed)
RNA 1: CACCCGUGCAAAAAUGCAGGGGUCUAAAACUGAGCGGAUAACCUCUCUAUGG
RNA 2: GGGAAUGGAUCCACAUCUACGAAUUCCCUCCAUAGAGAGGUUAUCCGCUCAACUAGAUCGGAAGAGCACACGU
B12: target 1 MT 5'PFS GUU 3'PFS UCG (mixed)
RNA 1: CACCCGUGCAAAAAUGCAGGGGUCUAAAACUGAGCGGAUAACCUCUCUAUGG
RNA 2: GGGAAUGGAUCCACAUCUACGAAUUCGUUCCAUAGAGAGGUUAUCCGCUCAUCGAGAUCGGAAGAGCACACGU
B13: target 1 G5A,C6A (mixed)
RNA 1: CACCCGUGCAAAAAUGCAGGGGUCUAAAACUGAGCGGAUAACCUCUCUAUGG
RNA 2: GGGAAUGGAUCCACAUCUACGAAUUCGUACCAUAGAGAGGUUAUCAACUCACCGAGAUCGGAAGAGCACACGU
B14: target 1 MT 5'PFS GUU 3'PFS AAU (mixed)
RNA 1: CACCCGUGCAAAAAUGCAGGGGUCUAAAACUGAGCGGAUAACCUCUCUAUGG
RNA 2: GGGAAUGGAUCCACAUCUACGAAUUCGUUCCAUAGAGAGGUUAUCCGCUCAAAUAGAUCGGAAGAGCACACGU
B15: target 1 MT 5'PFS UAU 3'PFS UCG (mixed)
RNA 1: CACCCGUGCAAAAAUGCAGGGGUCUAAAACUGAGCGGAUAACCUCUCUAUGG
RNA 2: GGGAAUGGAUCCACAUCUACGAAUUCUAUCCAUAGAGAGGUUAUCCGCUCAUCGAGAUCGGAAGAGCACACGU
B16: target 1 MT 5'PFS UAG 3'PFS CAA (mixed)
RNA 1: CACCCGUGCAAAAAUGCAGGGGUCUAAAACUGAGCGGAUAACCUCUCUAUGG
RNA 2: GGGAAUGGAUCCACAUCUACGAAUUCUAGCCAUAGAGAGGUUAUCCGCUCACAAAGAUCGGAAGAGCACACGU
B17: target 1 MT 5'PFS GCA 3'PFS UGU (mixed)
RNA 1: CACCCGUGCAAAAAUGCAGGGGUCUAAAACUGAGCGGAUAACCUCUCUAUGG
RNA 2: GGGAAUGGAUCCACAUCUACGAAUUCGCACCAUAGAGAGGUUAUCCGCUCAUGUAGAUCGGAAGAGCACACGU
B18: target 1 MT 5'PFS AAG 3'PFS UGC (mixed)
RNA 1: CACCCGUGCAAAAAUGCAGGGGUCUAAAACUGAGCGGAUAACCUCUCUAUGG
RNA 2: GGGAAUGGAUCCACAUCUACGAAUUCAAGCCAUAGAGAGGUUAUCCGCUCAUGCAGAUCGGAAGAGCACACGU
B19: target 1 MT 5'PFS UAG 3'PFS CAG (mixed)
RNA 1: CACCCGUGCAAAAAUGCAGGGGUCUAAAACUGAGCGGAUAACCUCUCUAUGG
RNA 2: GGGAAUGGAUCCACAUCUACGAAUUCUAGCCAUAGAGAGGUUAUCCGCUCACAGAGAUCGGAAGAGCACACGU
B20: target 1 MT 5'PFS UAG 3'PFS CAU (mixed)
RNA 1: CACCCGUGCAAAAAUGCAGGGGUCUAAAACUGAGCGGAUAACCUCUCUAUGG
RNA 2: GGGAAUGGAUCCACAUCUACGAAUUCUAGCCAUAGAGAGGUUAUCCGCUCACAUAGAUCGGAAGAGCACACGU
B21: target 1 MT 5'PFS GUU 3'PFS UCC (mixed)
RNA 1: CACCCGUGCAAAAAUGCAGGGGUCUAAAACUGAGCGGAUAACCUCUCUAUGG
RNA 2: GGGAAUGGAUCCACAUCUACGAAUUCGUUCCAUAGAGAGGUUAUCCGCUCAUCCAGAUCGGAAGAGCACACGU
B22: target 1 MT 5'PFS GGC 3'PFS AAU (mixed)
RNA 1: CACCCGUGCAAAAAUGCAGGGGUCUAAAACUGAGCGGAUAACCUCUCUAUGG
RNA 2: GGGAAUGGAUCCACAUCUACGAAUUCGGCCCAUAGAGAGGUUAUCCGCUCAAAUAGAUCGGAAGAGCACACGU
B23: target 1 MT 5'PFS GAA 3'PFS UAC (mixed)
RNA 1: CACCCGUGCAAAAAUGCAGGGGUCUAAAACUGAGCGGAUAACCUCUCUAUGG
RNA 2: GGGAAUGGAUCCACAUCUACGAAUUCGAACCAUAGAGAGGUUAUCCGCUCAUACAGAUCGGAAGAGCACACGU
B24: target 1 MT 5'PFS UAG 3'PFS CAC (mixed)
RNA 1: CACCCGUGCAAAAAUGCAGGGGUCUAAAACUGAGCGGAUAACCUCUCUAUGG
RNA 2: GGGAAUGGAUCCACAUCUACGAAUUCUAGCCAUAGAGAGGUUAUCCGCUCACACAGAUCGGAAGAGCACACGU
B25: target 1 U8C,U11G (mixed)
RNA 1: CACCCGUGCAAAAAUGCAGGGGUCUAAAACUGAGCGGAUAACCUCUCUAUGG
RNA 2: GGGAAUGGAUCCACAUCUACGAAUUCGUACCAUAGAGAGGGUACCCGCUCACCGAGAUCGGAAGAGCACACGU
B26: target 1 MT 5'PFS GUU 3'PFS AAA (mixed)
RNA 1: CACCCGUGCAAAAAUGCAGGGGUCUAAAACUGAGCGGAUAACCUCUCUAUGG
RNA 2: GGGAAUGGAUCCACAUCUACGAAUUCGUUCCAUAGAGAGGUUAUCCGCUCAAAAAGAUCGGAAGAGCACACGU
B27: target 1 MT 5'PFS CCG 3'PFS AGU (mixed)
RNA 1: CACCCGUGCAAAAAUGCAGGGGUCUAAAACUGAGCGGAUAACCUCUCUAUGG
RNA 2: GGGAAUGGAUCCACAUCUACGAAUUCCCGCCAUAGAGAGGUUAUCCGCUCAAGUAGAUCGGAAGAGCACACGU

This data set deals with T1, EsCas13d, nuclease-dead (Eubacterium siraeum, UniProt B0MS50, R295A;H300A;R849A;H854A).
T1 sequence: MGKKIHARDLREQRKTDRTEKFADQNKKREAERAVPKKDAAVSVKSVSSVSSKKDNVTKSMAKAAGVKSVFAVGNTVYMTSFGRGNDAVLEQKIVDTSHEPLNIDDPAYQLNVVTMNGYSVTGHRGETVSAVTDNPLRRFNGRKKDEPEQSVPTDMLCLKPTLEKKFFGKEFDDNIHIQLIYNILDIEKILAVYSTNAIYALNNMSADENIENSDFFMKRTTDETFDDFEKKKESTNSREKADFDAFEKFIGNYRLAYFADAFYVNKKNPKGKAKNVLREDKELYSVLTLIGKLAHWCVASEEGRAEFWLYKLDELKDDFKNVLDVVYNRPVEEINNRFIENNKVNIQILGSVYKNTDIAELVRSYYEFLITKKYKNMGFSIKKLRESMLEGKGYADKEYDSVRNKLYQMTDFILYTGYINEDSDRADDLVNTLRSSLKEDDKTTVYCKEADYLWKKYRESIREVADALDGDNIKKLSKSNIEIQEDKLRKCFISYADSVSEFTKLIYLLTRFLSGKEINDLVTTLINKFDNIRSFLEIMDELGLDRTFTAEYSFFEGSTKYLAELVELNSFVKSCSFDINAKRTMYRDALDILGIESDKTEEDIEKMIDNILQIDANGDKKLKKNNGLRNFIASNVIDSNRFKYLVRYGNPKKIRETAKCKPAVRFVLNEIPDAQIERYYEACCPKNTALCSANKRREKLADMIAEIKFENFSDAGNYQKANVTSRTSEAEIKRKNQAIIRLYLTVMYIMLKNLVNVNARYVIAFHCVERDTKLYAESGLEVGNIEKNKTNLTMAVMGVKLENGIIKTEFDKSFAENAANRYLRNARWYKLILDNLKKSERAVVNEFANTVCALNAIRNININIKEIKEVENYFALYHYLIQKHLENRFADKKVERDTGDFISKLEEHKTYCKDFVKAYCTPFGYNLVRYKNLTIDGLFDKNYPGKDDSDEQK
Nature of the data set: crRNA (strand 1, pre-loaded); Mg2+; 40 mM Tris-HCl pH 7.5, 150 mM NaCl, 6 mM MgCl2, 1 mM DTT, 0.1% Tween-20, 0.2 mg/ml BSA; 25 C; 10 min per concentration, then washed. The conditions noted are these: tags: His6-TwinStrep-SUMO cleaved; N-terminal SNAP kept (SNAP-Surface 488); label: 3' end held by stalled T7 RNA polymerase.
B1 had a Kd of 0.048 ± 0.008 µM.
Next, B2: 0.0156 ± 0.0021 µM; B3: 0.0375 ± 0.0085 µM; B4: 0.0275 ± 0.006 µM.
Next, B5: 0.00555 ± 0.00145 µM.
With B6 the figure was 0.032 ± 0.0065 µM; with B7, 0.00475 ± 0.0011 µM.
As for B8, the equilibrium dissociation constant (Kd) stood at 0.023 ± 0.0075 µM.
In the case of B9, the dissociation constant Kd amounted to 0.00355 ± 0.0008 µM.
Next, B10: 0.0127 ± 0.0014 µM; B11: 0.0165 ± 0.0055 µM; B12: 0.0185 ± 0.0027 µM.
Next, B13: 0.00575 ± 0.00022 µM.
Turning to B14, binding was put at a Kd of 0.022 ± 0.0045 µM.
With B15 the figure was 0.029 ± 0.007 µM; with B16, 0.051 ± 0.011 µM.
Next, B17: 0.035 ± 0.0075 µM.
Regarding B18, the Kd was 0.0515 ± 0.025 µM.
Next, B19: 0.0425 ± 0.013 µM; B20: 0.065 ± 0.021 µM.
With B21 the figure was 0.0148 ± 0.00365 µM.
With B22 the figure was 0.0445 ± 0.0185 µM.
In the case of B23, the Kd was determined as 0.04 ± 0.011 µM.
Next, B24: approximately 0.043 µM.
B25 displayed a Kd of 0.027 ± 0.0025 µM.
With B26 the figure was 0.0465 ± 0.0135 µM; with B27, 0.01 ± 0.0045 µM.

One may read the Kd as the constant that tells how readily two partners part at equilibrium. The low end stands for tighter binding, the high end for weaker binding.
